According to US20260028403A1 (Zymeworks, published 2026):

biological target: huCD28 (human, UniProt P10747 19-152, limits assumed); assay: SPR, OAA format

Row | Binder | Fold-change from WT [fold] | Kd [nM] | koff [s⁻¹] | kon [M⁻¹ s⁻¹]
1 | v37870 (antibody, V domains shown, OAA format as v34891; also called huTN228 T1036A (VL) OAA) VH: QVQLQESGPGLVKPSETLSLTCAVSGFSLTSYGVHWIRQPPGKGLEWLGVIWPGGGTNFNSALMSRLTISEDTSKNQVSLKLSSVTAADTAVYYCARDRAYGNYLYAMDYWGQGTLVTVSS VL: DIQMTQSPSSLSASVGDRVTITCRASESVEYYVASLMQWYQQKPGKAPKLLIYAASNVDSGVPSRFSGSGSGTDFTLTISSLQPEDIATYYCQQSRKVPFTFGGGTKVEIK | 3.08 | 271 | 0.0258 | 96800
2 | v37876 (antibody, V domains shown, OAA format as v34891; also called huTN228 S1069A (VL) OAA) VH: QVQLQESGPGLVKPSETLSLTCAVSGFSLTSYGVHWIRQPPGKGLEWLGVIWPGGGTNFNSALMSRLTISEDTSKNQVSLKLSSVTAADTAVYYCARDRAYGNYLYAMDYWGQGTLVTVSS VL: DIQMTQSPSSLSASVGDRVTITCRASESVEYYVTSLMQWYQQKPGKAPKLLIYAASNVDAGVPSRFSGSGSGTDFTLTISSLQPEDIATYYCQQSRKVPFTFGGGTKVEIK | 0.64 | 56.4 | 0.00326 | 57800
3 | v37891 (antibody, V domains shown, OAA format as v34891; also called huTN228 L1053I (VH) OAA) VH: QVQLQESGPGLVKPSETLSLTCAVSGFSLTSYGVHWIRQPPGKGLEWIGVIWPGGGTNFNSALMSRLTISEDTSKNQVSLKLSSVTAADTAVYYCARDRAYGNYLYAMDYWGQGTLVTVSS VL: DIQMTQSPSSLSASVGDRVTITCRASESVEYYVTSLMQWYQQKPGKAPKLLIYAASNVDSGVPSRFSGSGSGTDFTLTISSLQPEDIATYYCQQSRKVPFTFGGGTKVEIK | 0.54 | 47.7 | 0.0028 | 58800
4 | v37875 (antibody, V domains shown, OAA format as v34891; also called huTN228 D1068A (VL) OAA) VH: QVQLQESGPGLVKPSETLSLTCAVSGFSLTSYGVHWIRQPPGKGLEWLGVIWPGGGTNFNSALMSRLTISEDTSKNQVSLKLSSVTAADTAVYYCARDRAYGNYLYAMDYWGQGTLVTVSS VL: DIQMTQSPSSLSASVGDRVTITCRASESVEYYVTSLMQWYQQKPGKAPKLLIYAASNVASGVPSRFSGSGSGTDFTLTISSLQPEDIATYYCQQSRKVPFTFGGGTKVEIK | 0.53 | 46.6 | 0.00315 | 67600
5 | v37884 (antibody, V domains shown, OAA format as v34891; also called huTN228 L1112AI (VH) OAA) VH: QVQLQESGPGLVKPSETLSLTCAVSGFSLTSYGVHWIRQPPGKGLEWLGVIWPGGGTNFNSALMSRLTISEDTSKNQVSLKLSSVTAADTAVYYCARDRAYGNYIYAMDYWGQGTLVTVSS VL: DIQMTQSPSSLSASVGDRVTITCRASESVEYYVTSLMQWYQQKPGKAPKLLIYAASNVDSGVPSRFSGSGSGTDFTLTISSLQPEDIATYYCQQSRKVPFTFGGGTKVEIK | 1.51 | 133 | 0.00993 | 76000
6 | v37897 (antibody, V domains shown, OAA format as v34891; also called huTN228 V1087F (VH) OAA) VH: QVQLQESGPGLVKPSETLSLTCAVSGFSLTSYGVHWIRQPPGKGLEWLGVIWPGGGTNFNSALMSRLTISEDTSKNQFSLKLSSVTAADTAVYYCARDRAYGNYLYAMDYWGQGTLVTVSS VL: DIQMTQSPSSLSASVGDRVTITCRASESVEYYVTSLMQWYQQKPGKAPKLLIYAASNVDSGVPSRFSGSGSGTDFTLTISSLQPEDIATYYCQQSRKVPFTFGGGTKVEIK | 0.88 | 77.4 | 0.00487 | 63000
7 | v37890 (antibody, V domains shown, OAA format as v34891; also called huTN228 A1024T (VH) OAA) VH: QVQLQESGPGLVKPSETLSLTCTVSGFSLTSYGVHWIRQPPGKGLEWLGVIWPGGGTNFNSALMSRLTISEDTSKNQVSLKLSSVTAADTAVYYCARDRAYGNYLYAMDYWGQGTLVTVSS VL: DIQMTQSPSSLSASVGDRVTITCRASESVEYYVTSLMQWYQQKPGKAPKLLIYAASNVDSGVPSRFSGSGSGTDFTLTISSLQPEDIATYYCQQSRKVPFTFGGGTKVEIK | 0.66 | 57.8 | 0.00349 | 60800
8 | v37879 (antibody, V domains shown, OAA format as v34891; also called huTN228 V1114A (VL) OAA) VH: QVQLQESGPGLVKPSETLSLTCAVSGFSLTSYGVHWIRQPPGKGLEWLGVIWPGGGTNFNSALMSRLTISEDTSKNQVSLKLSSVTAADTAVYYCARDRAYGNYLYAMDYWGQGTLVTVSS VL: DIQMTQSPSSLSASVGDRVTITCRASESVEYYVTSLMQWYQQKPGKAPKLLIYAASNVDSGVPSRFSGSGSGTDFTLTISSLQPEDIATYYCQQSRKAPFTFGGGTKVEIK | 0.39 | 34.7 | 0.00174 | 50300
9 | v37874 (antibody, V domains shown, OAA format; also called huTN228 N1066A (VL) OAA) VH: QVQLQESGPGLVKPSETLSLTCAVSGFSLTSYGVHWIRQPPGKGLEWLGVIWPGGGTNFNSALMSRLTISEDTSKNQVSLKLSSVTAADTAVYYCARDRAYGNYLYAMDYWGQGTLVTVSS VL: DIQMTQSPSSLSASVGDRVTITCRASESVEYYVTSLMQWYQQKPGKAPKLLIYAASAVDSGVPSRFSGSGSGTDFTLTISSLQPEDIATYYCQQSRKVPFTFGGGTKVEIK | 0.59 | 52.1 | 0.00321 | 61800
10 | v37898 (antibody, V domains shown, OAA format as v34891) VH: QVQLQESGPGLVKPSETLSLTCAVSGFSLTSYGVHWIRQPPGKGLEWLGVIWPGGGTNFNSALMSRLTISEDTSKNQVSLKLSSVTAADTAVYYCARDRAYGNYLYAMDYWGQGTLVTVSS VL: DIQMTQSPSSLSASVGDRVTITCRASESVEYYVTSLLNWYQQKPGKAPKLLIYAASNVDSGVPSRFSGSGSGTDFTLTISSLQPEDIATYYCQQSRKVPFTFGGGTKVEIK | 0.84 | 73.7 | 0.00573 | 77900
11 | v37883 (antibody, V domains shown, OAA format as v34891; also called huTN228 N1111AQ (VH) OAA) VH: QVQLQESGPGLVKPSETLSLTCAVSGFSLTSYGVHWIRQPPGKGLEWLGVIWPGGGTNFNSALMSRLTISEDTSKNQVSLKLSSVTAADTAVYYCARDRAYGQYLYAMDYWGQGTLVTVSS VL: DIQMTQSPSSLSASVGDRVTITCRASESVEYYVTSLMQWYQQKPGKAPKLLIYAASNVDSGVPSRFSGSGSGTDFTLTISSLQPEDIATYYCQQSRKVPFTFGGGTKVEIK | 3.81 | 335 | 0.029 | 86800
12 | v37878 (antibody, V domains shown, OAA format as v34891; also called huTN228 K1109A (VL) OAA) VH: QVQLQESGPGLVKPSETLSLTCAVSGFSLTSYGVHWIRQPPGKGLEWLGVIWPGGGTNFNSALMSRLTISEDTSKNQVSLKLSSVTAADTAVYYCARDRAYGNYLYAMDYWGQGTLVTVSS VL: DIQMTQSPSSLSASVGDRVTITCRASESVEYYVTSLMQWYQQKPGKAPKLLIYAASNVDSGVPSRFSGSGSGTDFTLTISSLQPEDIATYYCQQSRAVPFTFGGGTKVEIK | 1.93 | 170 | 0.0117 | 70800
13 | v37888 (antibody, V domains shown, OAA format as v34891; also called huTN228 N1066Q (VL) OAA) VH: QVQLQESGPGLVKPSETLSLTCAVSGFSLTSYGVHWIRQPPGKGLEWLGVIWPGGGTNFNSALMSRLTISEDTSKNQVSLKLSSVTAADTAVYYCARDRAYGNYLYAMDYWGQGTLVTVSS VL: DIQMTQSPSSLSASVGDRVTITCRASESVEYYVTSLMQWYQQKPGKAPKLLIYAASQVDSGVPSRFSGSGSGTDFTLTISSLQPEDIATYYCQQSRKVPFTFGGGTKVEIK | 0.61 | 53.8 | 0.00319 | 59200
14 | v37882 (antibody, V domains shown, OAA format as v34891; also called huTN228 S1036T (VH) OAA) VH: QVQLQESGPGLVKPSETLSLTCAVSGFSLTTYGVHWIRQPPGKGLEWLGVIWPGGGTNFNSALMSRLTISEDTSKNQVSLKLSSVTAADTAVYYCARDRAYGNYLYAMDYWGQGTLVTVSS VL: DIQMTQSPSSLSASVGDRVTITCRASESVEYYVTSLMQWYQQKPGKAPKLLIYAASNVDSGVPSRFSGSGSGTDFTLTISSLQPEDIATYYCQQSRKVPFTFGGGTKVEIK | 0.59 | 51.7 | 0.00311 | 60500

biological target: T1, Recombinant human CD3 epsilon/delta heterodimer, his tag protein (Acro Biosystems) (human, UniProt P07766 23-126; P04234 22-105); assay: SPR Biacore T200, CD3 e/d-his on CM5, construct injected, 1:1 model;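 further: measured at 25 °C in HEPES-buffered saline with EDTA and Tween 20 at pH 7.4, values are means of three independent runs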
T1 construct: bought

Row | Binder | Kd [nM] | koff [s⁻¹] | kon [M⁻¹ s⁻¹]
15 | v37664 (bispecific antibody, also called anti-(CLDN18.2xCD3) bispecific control) heavy: QVQLVESGGGLVQPGGSLRLSCSVSGIDLSSNPMIWVRQAPGKGLQYIGIIDTDGSTYYADWAKGRFTISKDSTTVYLQINSPRAEDTAVYYCARRLHGSSNGYYDDLWGQGTLVTVSSGGGGSGGGGSGGGGSGGGGSDGQMTQSPSSVSASVGDRVTITCQASQSIYSYLSWYQQKPGQRPKLLIYKASTLASGVPSRFSGSGSGTDFTLTISSVQPEDFATYYCQQGYTVTNVDKNTFGGGTKVEIKGGGGSGEVQLVESGGGLVQPGGSLRLSCAASGVTFNYYGMSWIRQAPGKGLEWVASITSSGGRIYYPDSVKGRFTISRENTQKTLYLQMNSLRAEDTAVYYCTLDGRDGWVAYWGQGTLVTVSSASTKGPSVFPLAPSSKSTSGGTAALGCLVKDYFPEPVTVSWNSGALTSGVHTFPAVLQSSGLYSLSSVVTVPSSSLGTQTYICNVNHKPSNTKVDKKVEPKSCDKTHTCPPCPAPEAAGGPSVFLFPPKPKDTLMISRTPEVTCVVVSVSHEDPEVKFNWYVDGVEVHNAKTKPREEQYNSTYRVVSVLTVLHQDWLNGKEYKCKVSNKALPAPIEKTISKAKGQPREPQVYVLPPSRDELTKNQVSLLCLVKGFYPSDIAVEWESNGQPENNYLTWPPVLDSDGSFFLYSKLTVDKSRWQQGNVFSCSVMHEALHNHYTQKSLSLSPG light: NFMLTQPHSVSESPGKTVTISCKRNTGNIGSNYVNWYQQHEGSSPTTIIYRNDKRPDGVSDRFSGSIDRSSKSASLTISNLKTEDEADYFCQSYSSGFIFGGGTKLTVLGQPKAAPSVTLFPPSSEELQANKATLVCLISDFYPGAVTVAWKADSSPVKAGVETTTPSKQSNNKYAASSYLSLTPEQWKSHRSYSCQVTHEGSTVEKTVAPTECS Fc: not shown | 127 | 0.0228 | 180000
